Test results published in PMC6995573 (2019).

T1: Human ornithine decarboxylase (human, UniProt P11926 2-421)
T1 chain: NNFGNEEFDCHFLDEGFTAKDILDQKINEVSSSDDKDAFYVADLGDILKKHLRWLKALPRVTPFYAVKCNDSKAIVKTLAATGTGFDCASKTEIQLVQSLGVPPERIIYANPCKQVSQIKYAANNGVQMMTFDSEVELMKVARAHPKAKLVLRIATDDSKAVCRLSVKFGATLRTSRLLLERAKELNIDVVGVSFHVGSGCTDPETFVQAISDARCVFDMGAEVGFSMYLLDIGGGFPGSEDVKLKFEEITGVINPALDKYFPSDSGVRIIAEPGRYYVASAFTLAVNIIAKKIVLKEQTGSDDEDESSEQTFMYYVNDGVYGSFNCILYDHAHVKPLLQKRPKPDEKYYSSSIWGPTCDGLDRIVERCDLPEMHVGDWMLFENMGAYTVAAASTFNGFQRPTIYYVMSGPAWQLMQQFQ

B1: AZ3_WT (natural protein)
chain: MPCKRCRPSVYSLSYIKRGKTRNYLYPIWSPYAYYLYCYKYRITLREKMLPRCYKSITYKEEEDLTLQPRSCLQCSESLVGLQEGKSTEQGNHDQLKELYSAGNLTVLATDPLLHQDPVQLDFHFRLTSQTSAHWHGLLCDRRLFLDIPYQALDQGNRESLTATLEYVEEKTNVDSVFVNFQNDRNDRGALLRAFSYMGFEVVRPDHPALPPLDNVIFMVYPLERDVGHLPSEPP
B2: AZ2 (natural protein)
chain: MINTQDSSILPLSNCPQLQCCRHIVPGPLWCSDAPHPLSKIPGGRGGGRDPSLSALIYKDEKLTVTQDLPVNDGKPHIVHFQYEVTEVKVSSWDAVLSSQSLFVEIPDGLLADGSKEGLLALLEFAEEKMKVNYVFICFRKGREDRAPLLKTFSFLGFEIVRPGHPCVPSRPDVMFMVYPLDQNLSDED
B3: AZ_(95–228)_D99A (domain or fragment)
chain: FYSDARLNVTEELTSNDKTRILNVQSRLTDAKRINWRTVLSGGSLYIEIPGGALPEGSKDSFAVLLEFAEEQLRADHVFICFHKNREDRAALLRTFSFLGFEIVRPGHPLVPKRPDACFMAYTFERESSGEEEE
B4: AZ_(95–228)_R121A (domain or fragment)
chain: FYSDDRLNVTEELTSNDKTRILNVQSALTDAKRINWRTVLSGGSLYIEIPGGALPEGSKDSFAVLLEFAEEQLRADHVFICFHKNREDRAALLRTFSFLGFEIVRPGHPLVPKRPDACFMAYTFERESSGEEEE
B5: AZ_(95–228)_R100A (domain or fragment)
chain: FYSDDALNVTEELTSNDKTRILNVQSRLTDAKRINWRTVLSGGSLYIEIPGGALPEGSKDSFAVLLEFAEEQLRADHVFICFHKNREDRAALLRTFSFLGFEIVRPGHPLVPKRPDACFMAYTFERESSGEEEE
B6: AZ_(95–228)_D111A (domain or fragment)
chain: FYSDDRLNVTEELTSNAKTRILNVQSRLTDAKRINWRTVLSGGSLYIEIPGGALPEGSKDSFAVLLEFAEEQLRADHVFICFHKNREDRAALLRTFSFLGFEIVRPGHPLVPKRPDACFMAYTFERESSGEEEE
B7: AZ_(95–228)_E105A (domain or fragment)
chain: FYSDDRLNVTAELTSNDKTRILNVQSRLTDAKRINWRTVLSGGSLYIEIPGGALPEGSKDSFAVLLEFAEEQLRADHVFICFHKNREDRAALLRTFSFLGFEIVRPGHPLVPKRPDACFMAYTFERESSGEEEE
B8: AZ_(95–228)_D98A (domain or fragment)
chain: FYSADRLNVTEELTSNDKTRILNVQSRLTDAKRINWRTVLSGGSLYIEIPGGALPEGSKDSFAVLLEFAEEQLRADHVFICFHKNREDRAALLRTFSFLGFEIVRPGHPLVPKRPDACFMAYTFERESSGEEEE
B9: AZ_(95–228)_R114A (domain or fragment)
chain: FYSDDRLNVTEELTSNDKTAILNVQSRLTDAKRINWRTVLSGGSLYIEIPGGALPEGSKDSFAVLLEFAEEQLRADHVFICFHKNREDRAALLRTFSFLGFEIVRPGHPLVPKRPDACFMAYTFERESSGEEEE
B10: AZ_(95–228)_D124A (domain or fragment)
chain: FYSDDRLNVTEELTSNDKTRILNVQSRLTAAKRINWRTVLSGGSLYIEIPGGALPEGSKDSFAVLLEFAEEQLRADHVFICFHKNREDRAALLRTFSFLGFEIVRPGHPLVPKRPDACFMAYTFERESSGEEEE
B11: AZ_(95–228)_E106A (domain or fragment)
chain: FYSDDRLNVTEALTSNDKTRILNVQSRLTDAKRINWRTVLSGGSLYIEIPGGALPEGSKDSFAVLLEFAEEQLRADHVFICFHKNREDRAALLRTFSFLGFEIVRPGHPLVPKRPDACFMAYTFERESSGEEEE

Biological target: T1, Human ornithine decarboxylase
Assay: AUC

| Kd [nM] | Binder |
| --- | --- |
| 590 | B1 |
| 280 | B2 |

Biological target: T1, Human ornithine decarboxylase
Assay: inhibition of ODC enzyme activity

| IC50 [nM] | Binder |
| --- | --- |
| 840 | B1 |
| 190 | B2 |

Biological target: T1, Human ornithine decarboxylase
Assay: inhibition of ODC enzyme activity
Remark: another data set of the same source

| IC50 [nM] | Binder |
| --- | --- |
| 170 | B3 |
| 160 | B4 |
| 190 | B5 |
| 190 | B6 |
| 190 | B7 |
| 180 | B8 |
| 160 | B9 |
| 170 | B10 |
| 200 | B11 |
